System: mineralizing bone surface and GFP labeled osteoblast surface of long bones (femur)
Assay: Automated bone histomorphometry of femur trabecula in PTH treated GFP reporter mice
Type: in vivo
Conditions: for AC measurements CL (common surface area of GFP marked osteoblast and AC stained label/bone surface area) / AC measurements NCL (surface area of AC stained label only/bone surface area) / AC measurements TL (total AC stained label area/bone surface area) / GFP measurements CL / GFP measurements NCL / GFP measurements TL: femur trabecula, day 7, mean
Procedure: The combination of image analysis techniques (registration, segmentation, smoothing and thresh-holding) is amenable to automating histomorphometry analysis. We have used long bones (femur) of PTH treated, skeletally mature mice (8˜9 month old) whose transgenic expression of Col3.6GFP or Col2.3GFP is expected to be uniformly low. Each study had 2 groups of treatment experiments, one that is PTH treated and one that is vehicle (0.001 N HCl containing 1 mg/ml BSA) treated. Each treated study was terminated 1 day after 2 days, 3 days, and 7 days dose of treatment has been administered. A single red fluorochrome label (AC, alizarin complexone, 30 mg/Kg IP) has been administered concurrently with the final PTH dose approximately 24 hours prior to end of each study. The experimental quantification includes GFP labeled osteoblast surface, mineralizing bone surface and total bone surface.
We need to measure both the AC stained label areas and GFP marked osteoblast areas that are commonly related to the same bone surface region. Often, the distance between the AC stained labels and the GFP marked osteoblast are not uniform, and sometimes they may be located far away. Our approach is to find the reference bone surfaces first, and then move the related AC stained labels and GFP marked osteoblast onto the reference bone surfaces using morphological transformation. FIG. 7(b) is the transformed image of FIG. 7(a). The red and green colors show, respectively, the AC stained labels and the GFP marked osteoblast on the bone surface. The yellow color is introduced to represent the common areas of AC stained labels and GFP marked osteoblast. From this projected image, we are able to calculate the ratios of the AC stained labels and GFP marked osteoblast of interest.
Here PTH treated and vehicle treated studies use poBCol3.6GFP-Tpz and pOBCol2.3GFP-Emd, respectively, where the former is control and the latter is test. The measurement follows the bone volume measurement guideline presented in [Parfitt et al., 1987]. In Table 3, the following notations are used and each measurement is the percentage of 2D perimeter measurement over the total 2D bone surface area (Red=AC measurements, Cyan=GFP measurements).
TL=total AC stained label area/bone surface area; CL=common surface area of the GFP marked osteoblast and AC stained label/bone surface area; NCL=surface area of the AC stained label only/bone surface area; TG=total surface area of the green GFP marked osteoblast/bone surface area; GL=common surface area of the GFP marked osteoblast and AC stained label/bone surface area; NGL=surface area of the GFP marked osteoblast only/bone surface area.

B1: PTH: PTH given to skeletally mature transgenic GFP reporter mice for 2, 3 or 7 days; anticipated bone-forming effect (peptide, UniProt P01270 32-115, looked up)
Parathyroid hormone: SVSEIQLMHNLGKHLNSMERVEWLRKKLQDVHNFVALGAPLAPRDAGSQRPRKKEDNVLVESHEKSLGEADKADVNVLTKAKSQ
modifications: Parathyroid hormone
With B1 the “AC measurements CL (common surface area of GFP marked osteoblast and AC stained label/bone surface area)” value (Col 2.3-Emd mice) was 3.82%, the “AC measurements NCL (surface area of AC stained label only/bone surface area)” value (Col 2.3-Emd mice) was 12.65% and the “AC measurements TL (total AC stained label area/bone surface area)” value (Col 2.3-Emd mice) was 16.48%. The “GFP measurements CL” value (Col 2.3-Emd mice) was 3.82%, the “GFP measurements NCL” value (Col 2.3-Emd mice) was 8.00% and the “GFP measurements TL” value (Col 2.3-Emd mice) was 11.83%. The “AC measurements CL (common surface area of GFP marked osteoblast and AC stained label/bone surface area)” value (Col 3.6-Tpz mice) was 5.47%, the “AC measurements NCL (surface area of AC stained label only/bone surface area)” value (Col 3.6-Tpz mice) was 25.48% and the “AC measurements TL (total AC stained label area/bone surface area)” value (Col 3.6-Tpz mice) was 31.23%. The “GFP measurements CL” value (Col 3.6-Tpz mice) was 5.74%, the “GFP measurements NCL” value (Col 3.6-Tpz mice) was 4.24% and the “GFP measurements TL” value (Col 3.6-Tpz mice) was 9.99%. For the same molecule, the “calcified bone areas (TL), PTH treated case compared with vehicle treated case” value (day 7, in words) was “more calcified bone areas (TL)” and the “number of GFP marked osteoblast (TG), PTH treated case compared with vehicle treated case” value (day 7, in words) was “more”.

Source: US20150293026A1, “Automated system for tissue histomorphometry” (priority 2010, published 2015)
